This is an account of results in publication PMC4370734.

What all share (test): AUC; sedimentation velocity, 0.3 mg/mL, 20 mM Tris/HCl, 500 mM sodium chloride, 5 mM DTT, 0.4% CHAPS, pH 8.0, 42,000 rpm, 20°C; c(S) analysis with Sedfit; monomer, dimer, trimer and higher species
One data set deals with P42858.
In data set [1] the target is human full-length mutant Htt with 128Qs, C-terminally fused with a FLAG-His (FH) affinity tag (human) (UniProt P42858).
The target of data set [2] is human full-length normal Htt with 17Qs, C-terminally fused with a FLAG-His affinity tag (human) (UniProt P42858).

Where “and” joins values, the source holds several entries; their conditions need not be identical. Identical values can stand only once.

For “human full-length mutant Htt with 128Qs, C-terminally fused with a FLAG-His (FH) affinity tag”, in the data set with P42858, the fraction of aggregates result is “also of aggregates (23.6% versus 9.9%)”.

For “human full-length mutant Htt with 128Qs, C-terminally fused with a FLAG-His (FH) affinity tag, P42858 1-3142”, in data set [1], the fraction of dimer worked out at 20%; the fraction of monomer came to 35.6%; the fraction of trimer was 17.3%; the stoichiometry N was 2 and 3.

As for “human full-length normal Htt with 17Qs, C-terminally fused with a FLAG-His affinity tag”, the fraction of aggregates result in the data set on P42858 is given as “also of aggregates (23.6% versus 9.9%)”.

Regarding “human full-length normal Htt with 17Qs, C-terminally fused with a FLAG-His affinity tag, P42858 1-3142”, in data set [2], the fraction of dimer stood at 20%; the fraction of monomer was 52.1%; the fraction of trimer was determined as 8.8%; the stoichiometry N was 2 and 3.
